Experimental findings from patent publication US8624002B2, “Prostaglandin E2 binding proteins and uses thereof” (AbbVie, Inc., priority 2008, dated 2014) are described below.

Residue numbers refer to the chain shown, from its start. Names and notes keep the numbering of the source.

As a reminder, the EC50 is the concentration giving half of the maximal effect. High values mean lower potency in that assay, low ones higher potency in that assay.

Sequences and labels used below:
B1: 2B5-7.0: recombinant anti-PGE2 antibody from solved 2B5 sequence; VH SEQ ID NO 40, VL SEQ ID NO 41 (antibody, V domains shown)
VH: QVQLQQSGPELVRPGSSVKISCKASGYTFTKYWLGWVKQRPGHGLEWIGDIYPGYDYTHYNEKFKDKATLTVDTSSSTAYMQLSSLTSEDSAVYFCARSDGSSTYWGQGTLVTVSA
VL: DVLMTQTPLSLPVSLGDQASISCTSSQNIVHSNGNTYLEWYLQRPGQSPKLLIYKVSNRFSGVPDRFSGSGSGTVFTLKISRVEAEDLGVYYCFQVSHVPYTFGGGTKLEIKR
B2: 2B5-9.0: recombinant anti-PGE2 antibody from solved 2B5 sequence; VH SEQ ID NO 44, VL SEQ ID NO 45 (antibody, V domains shown)
VH: B1 VH with G54Y, Y55G
VL: B1 VL
B3: K3A: human anti-PGE2 antibody from PROfusion mRNA display; VH SEQ ID NO 13, VL SEQ ID NO 17 (antibody, V domains shown)
VH: EVQLVQSGAETKKPGASVEVSCKASGYSFTEYGISWVRQAPGQGPEWMGCISPYNGKLHYAQEFQGRVTMTTGTSTNTAYMELGSLRSDDTAVYYCARGGFSFYDSSGYYYVTDHWGQGTLVTVSS
VL: DIRLTQSPSSLSASVGDRVTITCRASQSIGSYLNWYQQKSGKAPKLLIYAASKLQSGVPSRFSGSGFGTDFTLTISSLQPEDSATYYCQQSDTTPFTFGQGTKLEIKR
B4: L11: human anti-PGE2 antibody from PROfusion mRNA display; VH SEQ ID NO 25, VL SEQ ID NO 29 (antibody, V domains shown)
VH: EVQLVQSGPELKKPGTSVKVSCKASGYTLTTYAMNWVRQAPGQGLEWMGWIDTSTGNPTYAPGFLGRFVFSLDTSLSTTYLQISSLKPDDTAVYYCARSSHTRPGDFWGQGTLVTVSS
VL: QSGLTQPPSVSGTPGQRVTISCSGSESNVGTNSVNWYQQLPGAAPRLLIRGNSDRPSGVPDRFSASKSGTSASLAISRLQSEDEADYFCGACDGRLSGLYVFGTGTKVTVL
B5: K1B: human anti-PGE2 antibody from PROfusion mRNA display; VH SEQ ID NO 5, VL SEQ ID NO 9 (antibody, V domains shown)
VH: EVQLVQSGAEVKRPGASVKVSCKTSGYTFTNYDINWVRLAPGQGLEWMGCMNPTTGKTGYAQKFQGRVTMTRDTTIATAYMELSRLTSEDTAVYYCARGRGYSPGYGVAYADYWGQGTLVTVSS
VL: DIQLTQSPSSLPASVGDRVTITCRASQSISTYLNWYQQTPGKAPSLLIYAASSLQSGVPSRFSGSGSGTDFTLTISSLQPEDFATYYCQQSYSPPPTFGGGTKVEIKR
B6: K7H: human anti-PGE2 antibody from PROfusion mRNA display; VH SEQ ID NO 21, VL SEQ ID NO 24 (antibody, V domains shown)
VH: B3 VH with A9S, T11L, E19K, E63K, Q65L, G73D, G84R, R87K, F103S
VL: B5 VL with Q3R
B7: L21: human anti-PGE2 antibody from PROfusion mRNA display; VH SEQ ID NO 33, VL SEQ ID NO 36 (antibody, V domains shown)
VH: EVQLVQSGSELKKPGTSVKVSCKASGYTLTTYAMNWVRQAPGQGLEWMGWIGTSTGNPTYAQGFTGRFVFSLDTSVNTAHLQIYSLKAEDTALYYCARSSLTRPADYWGQGTLVTVSS
VL: QSGLTQPPSVSGAPGQRVTISCFGSSSNIGAGYDVHWYQQLPGAAPKLLIFGNNNRPSGVPDRFSGSKSGTSASLAITGLQAEDEADYYCQSCDSSLSGAVFGTGTKVTVL

One assay can be described thus: Biotin-PGE2 ELISA (PGE2-biotinamide binding to captured IgG).
Details: not given
On the procedure:
Enzyme linked immunosorbent assays to screen for antibodies that bind prostaglandin E2 were performed according to at least one of the two following methods.
ELISA plates (Costar 3369, Corning, N.Y.) were coated with 50 μl of anti-host Fc IgG (Sigma, St. Louis, Mo.) at 2 μg/ml in PBS (Invitrogen Carlsbad, Calif.). Following an overnight incubation at 4° C., washed with PBS and the plate was blocked with 200 μl Superblock (Pierce #37535, Rockford, Ill.). The IgG containing samples were diluted to 1 μg/ml in Assay Buffer (10% Superblock in PBS containing 0.05% Surfactamps (Pierce #37535, Rockford, Ill.) and 50 μl/well added to each well and incubated for 1 hour at room temperature. Plates were washed four times with Tween-Tris Buffered Solution (TTBS). […] The titration curve samples were added to each IgG sample at 50 μl/well and incubated for 1 hour at room temperature. The plates were washed as previously described and 50 μl of 1:5000 dilution of streptavidin polyhrp40 (Fitzgerald Industries, Concord, Mass.) in Assay Buffer was added to each well and incubated for 45 minutes at room temperature. A final wash step was performed and the plates were developed using a single step TMB system (Sigma #T8665, St. Louis, Mo.) and 100 μl/well 2N H2SO4. Plates were read at 450 nm on a Molecular Devices Spectramax plate reader (Sunnyvale, Calif.). EC50 was determined using GraphPad Prism 5 (GraphPad Software, La Jolla, Calif.).
A general note: ELISA stands for enzyme-linked immunosorbent assay.
B1: the EC50 amounted to 2.46 nM and the “ability to bind PGE2 in ELISA” value is “potently bound to PGE2”.
For B2, the concentration giving a half-maximal response (EC50) is 3.04 nM and the “ability to bind PGE2 in ELISA” value was “potently bound to PGE2”.

Staying with this assay, now noted: Biotin-PGE2 0 μM.
In the case of B3, the “Binding to PGE2-Biotinamide (OD450)” value is 0.11.
Still for that read-out and setting: the figure for B4 is 0.04.
Regarding B5, the “Binding to PGE2-Biotinamide (OD450)” value came to 0.07.
Consider B6, for which the “Binding to PGE2-Biotinamide (OD450)” value is reported as 0.04.
With B7, the “Binding to PGE2-Biotinamide (OD450)” value is listed as 0.08.

Staying with this assay, now noted: Biotin-PGE2 0.1 μM.
Regarding B3, the “Binding to PGE2-Biotinamide (OD450)” value is given as 0.22.
Still for that read-out and setting: the result for B4 reads 0.04; that for B5, 0.13.
B6: the “Binding to PGE2-Biotinamide (OD450)” value is 0.03.
Same read-out and setting: the figure for B7 is 0.10.

The same assay, now with this note: Biotin-PGE2 0.3 μM.
As for B3, the “Binding to PGE2-Biotinamide (OD450)” value turned out to be 0.34.
As to B4, the “Binding to PGE2-Biotinamide (OD450)” value stood at 0.04.
Same read-out and setting: the result for B5 reads 0.21; that for B6, 0.04.
Still for that read-out and setting: the result for B7 reads 0.16.

The assay is the same for the next values; noted with them: Biotin-PGE2 1 μM.
On to B3, for which the “Binding to PGE2-Biotinamide (OD450)” value is given as 0.51.
On to B4, for which the “Binding to PGE2-Biotinamide (OD450)” value is listed as 0.05.
Same read-out and setting: the result for B5 reads 0.29; that for B6, 0.06; that for B7, 0.25.

Staying with this assay, now noted: Biotin-PGE2 2 μM.
With B3, the “Binding to PGE2-Biotinamide (OD450)” value was 0.61.
On the same count and under the same terms, the figure for B4 is 0.07; for B5 it is 0.27.
On the same count and under the same terms, the result for B6 reads 0.10; that for B7, 0.32.

Still in this assay, the particulars now being: Biotin-PGE2 5 μM.
For the molecule B3, the “Binding to PGE2-Biotinamide (OD450)” value amounted to 0.67.
The same measure, in the same setting: the figure for B4 is 0.07; for B5 it is 0.67; for B6 it is 0.13.
The same measure, in the same setting: the result for B7 reads 0.31.

Still in this assay, the particulars now being: Biotin-PGE2 15 μM.
On to B3, for which the “Binding to PGE2-Biotinamide (OD450)” value is on record as 0.78.
The same measure, in the same setting: the result for B4 reads 0.07; that for B5, 0.82.
On the same count and under the same terms, the result for B6 reads 0.29.
On the same count and under the same terms, the result for B7 reads 0.41.

The same assay, now with this note: Biotin-PGE2 45 μM; IgG-containing COS7 media.
Turning to B3, the “Binding to PGE2-Biotinamide (OD450)” value was 0.58.
For the molecule B4, the “Binding to PGE2-Biotinamide (OD450)” value was 0.07.
On the same count and under the same terms, the figure for B5 is 0.88.
Same read-out and setting: the figure for B6 is 0.24; for B7 it is 0.46.

Another assay can be described thus: Biotin-PGE2 competition ELISA (prostaglandin selectivity). The format is binding. The conditions noted are these: PGA2. How it is done: Competition enzyme linked immunosorbent assays were performed to determine prostaglandin binding specificity for antibodies that bind prostaglandin E2, according to at least one of the two following methods.
ELISA plates (Costar 3369, Corning, N.Y.) were coated with 50 μl/well of anti-host Fc IgG (Sigma, St. Louis, Mo.) at 2 μg/ml in PBS (Invitrogen, Carlsbad, Calif.). Following an overnight incubation at 4° C., the plate was blocked with 200 μl Superblock (Pierce #37535, Rockford, Ill.). The IgG samples were diluted to 6 μg/ml in Assay Buffer (10% Superblock in PBS containing 0.05% Surfactamps (Pierce #37535, Rockford, Ill.). The PGE2-biotinamide was diluted to 3 nM in Assay Buffer. A titration curve in Assay Buffer was prepared for the prostaglandins PGA2 (Cayman Chemicals, Ann Arbor, Mich.), PGD2 (Cayman Chemicals, Ann Arbor, Mich.) and PGE2 (Cayman Chemicals, Ann Arbor, Mich.) starting at 300 nM by a 1:10 serial dilution. The reagents were added to tubes at a volume of 50 μl each/tube and preincubated for 1 hour at room temperature. Following the preincubation, the mix was transferred to the blocked plates and allowed to incubate for 1 hour at room temperature. Next, the plates were washed four times with Tween 20-Tris buffered solution (TTBS). Streptavidin polyhrp40 in Assay Buffer (Fitzgerald Industries, Concord, Mass.) at a 1:5000 dilution was then added to the wells and incubated for 45 minutes at room temperature. A final wash step was performed and the plates were developed using a single step TMB system (Sigma #T8665, Sigma, St. Louis, Mo.) and 100 μl/well 2N H2SO4. Plates were read at 450 nm on a Molecular Devices Spectramax plate reader (Sunnyvale, Calif.). […] IC50 number was determined using GraphPad Prism 5 (GraphPad Software, La Jolla, Calif.). The cross reactivity index was then calculated by IC50 of PGE2/IC50 of other prostaglandin(s).
With B1, the “PG Selectivity in Biotin-PGE2 Competition ELISA (CRI %) PGA2” value came out at 0.11%.
Regarding B2, the “PG Selectivity in Biotin-PGE2 Competition ELISA (CRI %) PGA2” value came out at 0.24%.

Still in this assay, the particulars now being: PGD2.
In the case of B1, the “PG Selectivity in Biotin-PGE2 Competition ELISA (CRI %) PGD2” value is on record as less than 0.01%.
Take B2: the “PG Selectivity in Biotin-PGE2 Competition ELISA (CRI %) PGD2” value is recorded as less than 0.01%.

Staying with this assay, now noted: PGE1.
Consider B1, for which the “PG Selectivity in Biotin-PGE2 Competition ELISA (CRI %) PGE1” value worked out at 27%.
The same measure, in the same setting: the result for B2 reads 23%.
